From PMC10318062 (Nature Communications, 2023)
Read-outs that look alike come from different tables or passages of the source.

B1: COVA2-24 (antibody, V domains shown)
VH: EVQLVQSGAEVKKPGESLRISCKGSGYSFTSYWISWVRQMPGKGLEWMGRIDPSDSYTNYSPSFQGHVTISADKSISTAYLQWSSLKASDTAMYYCARPNPAGGYDSSGWVDAFDIWGQGTRVTVSS
VL: not shown
B2: COVA2-15 (antibody, V domains shown)
VH: QVQLLESGGGLVQPGGSLRLSCAASGFTFSSYAMSWVRQAPGKGLEWASAISGSGGSTYYADSVEGRFTISRDNSKNTLYLQMNSLRAEDTAVYYCAKDTGYCGDDCYIKLIRGGPDYWGQGTLVTVSS
VL: DIVMTQSPLSLPVTLGQPASISCRSSQSLVYSDGNTFLNWFQQRPGQSPRRLIYQVSNRDSGVPDRFSGSGSGTDFTLKISRVEAEDVGVYYCMQGTHWPRTFGQGTKLEIK
B3: CV07-270 (antibody, V domains shown)
VH: QVQLVESGGGLVKPGGSLRLSCAASGFTFSDYYMTWIRQAPGKGLEWVSYISSSGSTIYYADSVKGRFTISRDNAKNSLYLQMNSLRAEDTAVYYCARARGSSGWYRIGTRWGNWFDPWGQGTLVTVSS
VL: QSALTQPASVSGSPGQSITISCTGTSSDVGGYNYVSWYQQHPGKAPKLMIYEVSNRPSGVSNRFSGSKSGNTASLTISGLQAEDEADYYCSSYTSSSNVVFGGGTMLTVL
B4: REGN10987 (sdFab) (Fab, V domains shown)
VH: QVQLVESGGGVVQPGRSLRLSCAASGFTFSNYAMYWVRQAPGKGLEWVAVISYDGSNKYYADSVKGRFTISRDNSKNTLYLQMNSLRTEDTAVYYCASGSDYGDYLLVYWGQGTLVTVSS
VL: QSALTQPASVSGSPGQSITISCTGTSSDVGGYNYVSWYQQHPGKAPKLMIYDVSKRPSGVSNRFSGSKSGNTASLTISGLQSEDEADYYCNSLTSISTWVFGGGTKLTVL
B5: S2M11 (antibody, V domains shown)
VH: EVQLVQSGAEVKKPGASVKVSCKASGYTFTGYYMHWVRQAPGQGLEWMGWINPISSGTSYAQTFQGRVTMTSDTSITTAYMELSRLRSDDTAVYYCARAAPFYDFWSGYSYFDYWGQGTLVTVSS
VL: not shown
B6: LY-CoV555 (sdFab) (Fab, V domains shown)
VH: QVQLVQSGAEVKKPGSSVKVSCKASGGTFSNYAISWVRQAPGQGLEWMGRIIPILGIANYAQKFQGRVTITADKSTSTAYMELSSLRSEDTAVYYCARGYYEARHYYYYYAMDVWGQGTAVTVSS
VL: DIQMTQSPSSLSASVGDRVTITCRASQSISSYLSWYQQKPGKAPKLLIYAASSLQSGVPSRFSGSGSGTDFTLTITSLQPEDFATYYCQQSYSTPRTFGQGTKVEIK
B7: COVA2-02 (antibody, V domains shown)
VH: VQLQQESGPGLVKPSETLSLTCTVSGGSISSSSYYWGWIRQPPGKGLEWIGSIYYSGSTYYNPSLKSRVTISVDTSKNQFSLKLSSVTAADTAVYYCARRSTSRWGYYYMDVWGKGTRVTVSS
VL: DIVMTQSPSSLSASVGDRVTITCRASQSISNYLNWYQQKPGKAPKLLLYAASDLQSGVPSRFSGSGSGTDFTLTISSLQPEDFATYYCQQSYSTHMSTFGQGTKVDIK
B8: COVA2-07 (antibody, V domains shown)
VH: EVQLVETGGGLIQPGGSLRLSCAASGLTVSSNYMNWVRQAPGKGLEWVSVIYSGGSTYYADSVKGRFTISRDNSKNTLYLQMNSLRAEDTAVYYCAREAYGMDVWGQGTMVTVSS
VL: not shown
B9: S2E12 (antibody, V domains shown)
VH: not shown
VL: DIVLTQTPGTLSLSPGERATLSCRASQSVSSSYLAWYQQKPGQAPRLLIYGASSRATGIPDRFSGSGSGTDFTLTISRLEPEDFAVYYCQQYVGLTGWTFGQGTKVEIK
B10: S2P6 (sdFab) (Fab, V domains shown)
VH: EVQLVQSGAEVKKPGASVKVSCKASGYTFTSQYMHWVRQAPGQGLEWIGIINPSGVHTSYAQKFQGRVTLTRDTSTSTLYMELSSLRSEDTAVYYCARGSPKGAFDYWGQGTLVTVSS
VL: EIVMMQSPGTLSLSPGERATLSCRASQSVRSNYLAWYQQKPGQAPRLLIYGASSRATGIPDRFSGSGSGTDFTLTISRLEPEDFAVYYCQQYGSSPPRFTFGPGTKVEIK
B11: COVA2-11 (antibody, V domains shown)
VH: EVQLVESGAEVKKPGSSVKVSCKASGGTLSSYAISWVRQAPGQGLEWMGGIIPIFGTANYAQKFQGRVTITTDESTSTAYMELSSLRSEDTAVYYCARGPRGCSSTSCYGSYFDYWGQGTLVTVSS
VL: not shown
B12: CB6 (sdFab) (Fab, V domains shown)
VH: EVQLVESGGGLVQPGGSLRLSCAASGFTVSSNYMSWVRQAPGKGLEWVSVIYSGGSTFYADSVKGRFTISRDNSMNTLFLQMNSLRAEDTAVYYCARVLPMYGDYLDYWGQGTLVTVSS
VL: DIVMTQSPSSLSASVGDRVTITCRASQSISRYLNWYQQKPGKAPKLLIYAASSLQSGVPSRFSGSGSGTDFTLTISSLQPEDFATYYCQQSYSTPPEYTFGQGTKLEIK
B13: COVA2-16 (antibody, V domains shown)
VH: QVQLVQSGAEVKKPGATVKISCKVSGYTFTDYYMHWVQQAPGKGLEWMGLVDPEDGETIYAEKFQGRVTITADTSTDTAYMELSSLRSEDTAVYYCASSDSSGFVGSRGFDYWGQGTRVTVSS
VL: DIQLTQSPSSLSASVGDRVTITCRASQGIRNDLGWYQQKPGKAPKRLIYAASSLQSGVPSRFSGSGSGTEFTLTISSLQPEDFATYYCLQHNSYPPLFGQGTKVEIK
B14: COVA2-20 (antibody, V domains shown)
VH: EVQLVESGGGLIQPGGSLRLSCAASGFTVSSNYMSWVRQAPGKGLEWVSVIYSGGSTYYADSVKGRFTISRDNSKNTLYLQMNSLRAEDTAVYYCASPLLLTPPDYYYYMDVWGKGTMVTVSS
VL: DVVMTQSPSSLSVSVGDRVTITCRASQGIRNDLGWYQQKPGKAPKRLIYAASSLQSGVPSRFSGSGSGTEFTLTISSLQPEDFATYYCLQHNSYLWTFGQGTKLEIK
B15: COVA2-05 (antibody, V domains shown)
VH: EVQLLESGAEVKKPGESLKISCKGSGYSFTSYWIGWVRQMPGKGLEWMGIIYPGDSDTRYSPSFQGQVTISADKSISTAYLQWSSLKASDTAMYYCARHMRPSIAARPGYQYYMDVWGKGTRVTVSS
VL: not shown
B16: AZD8895 (sdFab) (Fab, V domains shown)
VH: EVQLVQSGPEVKKPGTSVKVSCKASGFTFMSSAVQWVRQARGQRLEWIGWIVIGSGNTNYAQKFQERVTITRDMSTSTAYMELSSLRSEDTAVYYCAAPYCSSISCNDGFDIWGQGTMVTVSS
VL: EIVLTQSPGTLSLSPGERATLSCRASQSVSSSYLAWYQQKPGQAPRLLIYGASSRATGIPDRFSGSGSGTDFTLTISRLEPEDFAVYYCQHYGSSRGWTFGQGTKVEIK
B17: S304 (antibody, V domains shown)
VH: VQLVESGGGLVQPGGSLRLSCAASGFTFSSYDMHWVRQTTGKGLEWVSTIGTAGDTYYPDSVKGRFTISREDAKNSLYLQMNSLRAGDTAVYYCARGDSSGYYYYFDYWGQGTLLTVSS
VL: DIEMTQSPSSLSAAVGDRVTITCRASQSIGSYLNWYQQKPGKAPKLLIYAASSLQSGVPSRFSGSGSGTDFTLTISSLQPEDFAIYYCQQSYVSPTYTFGPGTKVDIK
B18: COVA2-17 (antibody, V domains shown)
VH: QVQLVESGAEVKKPGSSVKVSCKASGGTFSSYGINWVRQAPGQGLEWMGGIIPIFGTANYAQKFQGRVTITTDESTSTAYMELSSLRSEDTAVYYCASFGDDSGDEGVRWGQGTLVTVSS
VL: EIVMTQSPATLSLSPGERATLSCRASQSVSSYLAWYQQKPGQAPRLLIYDASNRATGIPARFSGSGSGTDFTLTISSLEPEDFAVYYCQQRSNWPPYTFGQGTKVEIK
B19: COVA1-16 (antibody, V domains shown)
VH: QVQLVQSGAEVKKPGASVKVSCKASGYTFTSYYMHWVRQAPGQGLEWMGIINSSGGSTSYAQKFQGRVTMTRDTSTSTVYMELSSLRSEDTAVYYCARPPRNYYDRSGYYQRAEYFQHWGQGTLVTVSS
VL: DIQLTQSPSSLSASVGDRVTITCQASQDISNYLNWYQQRPGKAPKLLIYDASNLETGVPSRFSGSGSGTDFTFTISSLQPEDIATYYCQQYDNPPLTFGGGTKLEIK
B20: REGN10933 (sdFab) (Fab, V domains shown)
VH: QVQLVESGGGLVKPGGSLRLSCAASGFTFSDYYMSWIRQAPGKGLEWVSYITYSGSTIYYADSVKGRFTISRDNAKSSLYLQMNSLRAEDTAVYYCARDRGTTMVPFDYWGQGTLVTVSS
VL: DIQMTQSPSSLSASVGDRVTITCQASQDITNYLNWYQQKPGKAPKLLIYAASNLETGVPSRFSGSGSGTDFTFTISGLQPEDIATYYCQQYDNLPLTFGGGTKVEIK
B21: LY-CoV1404 (sdFab) (Fab, V domains shown)
VH: QITLKESGPTLVKPTQTLTLTCTFSGFSLSISGVGVGWLRQPPGKALEWLALIYWDDDKRYSPSLKSRLTISKDTSKNQVVLKMTNIDPVDTATYYCAHHSISTIFDHWGQGTLVTVSS
VL: QSALTQPASVSGSPGQSITISCTATSSDVGDYNYVSWYQQHPGKAPKLMIFEVSDRPSGISNRFSGSKSGNTASLTISGLQAEDEADYYCSSYTTSSAVFGGGTKLTVL
B22: S2X35 (antibody, V domains shown)
VH: QVQLVQSGAEVKKPGASVKVSCKASGYTFTNYGISWVRQAPGQGLEWMGWISAYKGNTNYAQKLQGRVTMTTDTSTSTAYMELRSLRSDDTAVYYCARPDYQVLGYDFWIGYYGMDVWGQGTTVIVSS
VL: QSVLTQPPSVSGAPGQRVTISCTGSSSNIGAGYDVHWYQQLPGTAPKLLIYGNTNRPSGVPDRFSGSKSGTSASLAITGLQAEDEADYYCQSYDSSLSGSEVVFGGGTKLTVL
B23: P2B-2F6 (antibody, V domains shown)
VH: QVQLQESGPGLVKPSETLSLTCTVSGYSISSGYYWGWIRQPPGKGLEWIGSIYHSGSTYYNPSLKTRVTISVDTSKNQFSLKLSSVTAADTAVYYCARAVVGIVVVPAAGRRAFDIWGQGTMVTVSS
VL: QSALTQPPSASGSPGQSVTISCTGTSSDVGGYNYVSWYQQHPGKAPKLMIYEVSKRPSGVPDRFSGSKSGNTASLTVSGLQAEDEADYYCSSYAGSNNLVFGGGTKLTVL

Legend:
[1] = molecular target: T1, SARS-CoV-2 Receptor Binding Domain (RBD) (SARS-CoV-2, UniProt P0DTC2)
[2] = molecular target: SARS-CoV-2 hexaproline stabilized pre-fusion spike glycoprotein (S6P) (SARS-CoV-2, ancestral (Wuhan-Hu-1 …, UniProt P0DTC2, stabilised))
[3] = molecular target: T1, SARS-CoV-2 Receptor Binding Domain (RBD); assay: AlphaScreen or HTRF; conditions: one partner purified
[4] = molecular target: HCoV-OC43 S (HCoV-OC43, strain ; reference …, UniProt P36334); assay: AlphaScreen or HTRF; conditions: one partner purified
Sequence of HCoV-OC43 S (P36334 14-1353): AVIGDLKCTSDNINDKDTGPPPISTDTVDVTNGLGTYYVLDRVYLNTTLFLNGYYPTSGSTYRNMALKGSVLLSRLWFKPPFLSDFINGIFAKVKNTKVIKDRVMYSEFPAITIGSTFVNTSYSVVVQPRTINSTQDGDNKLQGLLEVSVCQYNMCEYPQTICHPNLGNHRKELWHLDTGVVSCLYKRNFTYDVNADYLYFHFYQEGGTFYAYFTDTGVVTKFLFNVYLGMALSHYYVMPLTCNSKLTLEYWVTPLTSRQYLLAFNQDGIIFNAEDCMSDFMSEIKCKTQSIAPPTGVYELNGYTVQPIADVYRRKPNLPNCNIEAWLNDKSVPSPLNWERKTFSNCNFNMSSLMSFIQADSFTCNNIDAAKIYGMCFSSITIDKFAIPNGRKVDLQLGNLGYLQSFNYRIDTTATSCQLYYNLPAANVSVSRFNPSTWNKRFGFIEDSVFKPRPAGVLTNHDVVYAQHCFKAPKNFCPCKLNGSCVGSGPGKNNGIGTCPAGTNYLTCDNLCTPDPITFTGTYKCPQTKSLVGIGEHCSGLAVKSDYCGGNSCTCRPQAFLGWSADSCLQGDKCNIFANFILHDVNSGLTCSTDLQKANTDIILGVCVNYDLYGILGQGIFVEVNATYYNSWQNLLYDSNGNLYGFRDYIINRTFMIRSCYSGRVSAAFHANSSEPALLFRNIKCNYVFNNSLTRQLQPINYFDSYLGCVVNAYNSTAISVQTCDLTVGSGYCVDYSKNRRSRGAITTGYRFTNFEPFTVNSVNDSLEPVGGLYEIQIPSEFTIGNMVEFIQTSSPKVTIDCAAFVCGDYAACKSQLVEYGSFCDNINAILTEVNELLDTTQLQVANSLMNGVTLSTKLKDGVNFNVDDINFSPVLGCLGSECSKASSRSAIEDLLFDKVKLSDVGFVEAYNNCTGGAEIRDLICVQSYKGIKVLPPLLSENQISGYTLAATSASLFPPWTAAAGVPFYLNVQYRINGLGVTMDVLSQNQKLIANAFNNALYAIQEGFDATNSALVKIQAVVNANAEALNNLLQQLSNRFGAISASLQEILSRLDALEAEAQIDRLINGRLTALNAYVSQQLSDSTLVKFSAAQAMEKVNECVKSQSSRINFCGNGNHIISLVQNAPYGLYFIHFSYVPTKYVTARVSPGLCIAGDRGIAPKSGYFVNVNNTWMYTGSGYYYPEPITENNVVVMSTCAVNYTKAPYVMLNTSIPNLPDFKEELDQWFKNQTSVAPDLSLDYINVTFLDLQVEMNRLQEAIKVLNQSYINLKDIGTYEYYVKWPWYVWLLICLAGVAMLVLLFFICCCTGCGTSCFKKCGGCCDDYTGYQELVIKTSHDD

Binder	binding result [1]	binding result [2]	further results
B1	binds	–	–
B2	binds	binds	–
B3	–	binds	–
B4	–	–	binding result [3]: binds
B5	–	binds	–
B6	–	–	binding result [3]: binds
B7	binds	binds	–
B8	binds	–	–
B9	–	binds	–
B10	–	–	binding result [4]: binds
B11	binds	–	–
B12	–	–	binding result [3]: binds
B13	binds	binds	–
B14	binds	binds	–
B15	binds	–	–
B16	–	–	binding result [3]: binds
B17	–	binds	–
B18	binds	binds	–
B19	binds	binds	–
B20	–	–	binding result [3]: binds
B21	–	–	binding result [3]: binds
B22	–	binds	–
B23	–	binds	–
